Test [1] concerns the target MOR-1A-PK (mouse).
Test [2] has as its target MOR-1B1-PK (mouse).
The target in test [3] is MOR-1C-PK (mouse).
Test [4] addresses MOR-1E-PK (mouse).
The target of test [5] is MOR-TR-PK (mouse).
Test [6] deals with MOR-1-PK (mouse) (UniProt P42866).
In test [7] the target is MOR-1O-PK (mouse).
The target in test [8] is MOR-1O (untagged) (mouse). In words: radioligand binding.
In test [9] the target is MOR-1O-PK (mouse). In words: radioligand binding.

This is an account of results in publication PMC8026774.

Regarding DAMGO (peptide), the [35S]GTPγS binding (G-protein activation), EC50 in [1] came out at 39 nM; in test [2], 110 nM; in test [3], 195 nM; in [4] it was 29 nM; in [5], 48 nM.
As for [Met^5]enkephalin-Arg^6,Phe^7 (peptide), the [35S]GTPγS binding (G-protein activation), EC50 was 16 nM in test [6]; 13 nM in [1]; 33 nM in test [2]; 69 nM in [3]; 82 nM in [7]; 73 nM in test [5].
As to endomorphin-1 (peptide), the [35S]GTPγS binding (G-protein activation), EC50 stood at 44 nM in [6]; 86 nM in [1]; 113 nM in test [2]; 116 nM in test [3]; 42 nM in [4]; 282 nM in test [7]. Besides, the [35S]GTPγS binding (G-protein activation), EC50 in test [5] was found to be 107 nM.
endomorphin-2 (peptide): the [35S]GTPγS binding (G-protein activation), EC50 amounted to 90 nM in [6]; 131 nM in [1]; 367 nM in test [2]; 111 nM in [3]; 101 nM in test [4]; 335 nM in test [7]. In [5], this substance displayed a [35S]GTPγS binding (G-protein activation), EC50 of 55 nM.
With “β-endorphin (from UniProt P01189) (peptide)”, the [35S]GTPγS binding (G-protein activation), EC50 in [7] worked out at 192 nM. For the same substance, the Ki (in general, the dissociation constant of the complex between target and ligand, obtained from inhibition or displacement) was 13.3 nM in test [8] and 38.2 nM in test [9].
